Laboratory results as given in paper PMC7139218, “Structural Basis for Rab8a Recruitment of RILPL2 via LRRK2 Phosphorylation of Switch 2” (Structure(London, England:1993), 2020).
Blank lines part the entries; values can stand above or below the molecule they belong to. No end group written: not given here.

Assays:
[1] = target: RILPL2 (Mus musculus) (UniProt Q99LE1); details: cited from earlier work
[2] = target: the molecule itself; test: crystal structure; pRab8(Q67L):His6-RL2 complex, 1:1 molar ratio of protein:peptide, 12 mg/mL; 100 mM HEPES pH 7, 10% PEG4,000, 10% 2-propanol; 1.8 Å
[3] = target: T72 phosphorylated Rab8a(GTP), residues 1-181, Q67L (UniProt P61006); test: ITC; His6-RILPL2 129-165 (400-600 μM) injected into Rab8a or pRab8a 1-181 (40-60 μM); 10 mM Tris-HCl, 300 mM NaCl, 5 mM MgCl2, 20 mM imidazole, 1 mM DTT; triplicate
[4] = target: the molecule itself; test: SEC-MALS; static light scattering coupled to gel filtration, Superdex 200 (10/300); full-length RILPL2 with uncleaved polyhistidine tag, 500 μL at 1 mg/mL
[5] = target: T1, His6-tagged RILPL2 (full length, 1-211) (Homo sapiens (Human), UniProt Q969X0); test: Ni-agarose pull-down (SDS-PAGE, Coomassie)
T1 chain: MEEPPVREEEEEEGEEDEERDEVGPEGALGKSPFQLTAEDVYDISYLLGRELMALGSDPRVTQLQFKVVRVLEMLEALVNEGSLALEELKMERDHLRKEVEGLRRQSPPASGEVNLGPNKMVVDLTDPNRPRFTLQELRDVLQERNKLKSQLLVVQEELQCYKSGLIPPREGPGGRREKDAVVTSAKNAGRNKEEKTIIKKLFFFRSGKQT

RILPL2 (Mus musculus), sequence (Q99LE1 whole entry): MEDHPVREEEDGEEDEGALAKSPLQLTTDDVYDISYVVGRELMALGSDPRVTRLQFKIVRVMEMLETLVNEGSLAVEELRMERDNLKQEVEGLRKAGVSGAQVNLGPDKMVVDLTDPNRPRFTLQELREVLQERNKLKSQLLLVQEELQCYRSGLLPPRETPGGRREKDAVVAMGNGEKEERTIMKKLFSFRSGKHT
T72 phosphorylated Rab8a(GTP), residues 1-181, Q67L, sequence (P61006 1-181 Q67L): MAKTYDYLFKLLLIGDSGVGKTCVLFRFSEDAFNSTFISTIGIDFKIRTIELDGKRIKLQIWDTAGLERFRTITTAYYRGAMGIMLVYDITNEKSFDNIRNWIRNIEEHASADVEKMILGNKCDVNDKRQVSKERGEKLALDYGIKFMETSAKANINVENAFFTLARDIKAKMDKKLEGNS

Molecule: Myosin Va (from UniProt Q99104)
Kd [1]: 0.3 µM

Kd [3]: 3.3 µM
B1: His6-RILPL2 residues 129-165 (phospho-Rab binding domain, minimal RH2 motif) (peptide, UniProt Q969X0 129-165, looked up)
chain: His6-NRPRFTLQELRDVLQERNKLKSQLLVVQEELQCYKSG
notes: Parallel α-helical dimer in the crystal; also called His6-RL2; source: synthetic peptide (Genscript); not shown: His6, N-terminal, kept
stoichiometry N [2]: 2

B2: His6-tagged RILPL2 (full length, 1-211) (natural protein, human, UniProt Q969X0 1-211, looked up)
chain: MEEPPVREEEEEEGEEDEERDEVGPEGALGKSPFQLTAEDVYDISYLLGRELMALGSDPRVTQLQFKVVRVLEMLEALVNEGSLALEELKMERDHLRKEVEGLRRQSPPASGEVNLGPNKMVVDLTDPNRPRFTLQELRDVLQERNKLKSQLLVVQEELQCYKSGLIPPREGPGGRREKDAVVTSAKNAGRNKEEKTIIKKLFFFRSGKQT
notes: RILPL2, human, full length (1-211), cDNA in pET15b; Dimer in solution by static light scattering coupled to gel filtration; also called full-length RILPL2; source: E. coli, purified (Ni-agarose, gel filtration), polyhistidine tag not removed
stoichiometry N [4]: 2

binding result [5]: binds
B3: globular tail domain (GTD) of myosin Va (1462-1853) (protein)
chain: VNIPRKEKDFQGMLEYKREDEQKLVKNLILELKPRGVAVNLIPGLPAYILFMCVRHADYLNDDQKVRSLLTSTINSIKKVLKKRGDDFETVSFWLSNTCRFLHCLKQYSGEEGFMKHNTSRQNEHCLTNFDLAEYRQVLSDLAIQIYQQLVRVLENILQPMIVSGMLEHETIQGVSGVKPTGLRKRTSSIADEGTYTLDSILRQLNSFHSVMCQHGMDPELIKQVVKQMFYIVGAITLNNLLLRKDMCSWSKGMQIRYNVSQLEEWLRDKNLMNSGAKETLEPLIQAAQLLQVKKKTDDDAEAICSMCNALTTAQIVKVLNLYTPVNEFEERVSVSFIRTIQMRLRDRKDSPQLLMDAKHIFPVTFPFNPSSLALETIQIPASLGLGFIARV
